Measurements from patent US20030186419.

Biological target: rMBL-rMASP-2 complexes, P11226
Sequence (P11226 21-248, chain 1 of 2): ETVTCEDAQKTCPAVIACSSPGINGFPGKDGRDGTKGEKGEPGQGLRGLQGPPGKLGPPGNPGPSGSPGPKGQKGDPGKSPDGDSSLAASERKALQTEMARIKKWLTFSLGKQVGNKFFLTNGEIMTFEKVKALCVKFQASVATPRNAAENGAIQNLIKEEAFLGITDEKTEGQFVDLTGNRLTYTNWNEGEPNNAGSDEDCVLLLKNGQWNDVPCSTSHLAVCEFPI
Sequence (chain, as listed by the source, chain 2 of 2): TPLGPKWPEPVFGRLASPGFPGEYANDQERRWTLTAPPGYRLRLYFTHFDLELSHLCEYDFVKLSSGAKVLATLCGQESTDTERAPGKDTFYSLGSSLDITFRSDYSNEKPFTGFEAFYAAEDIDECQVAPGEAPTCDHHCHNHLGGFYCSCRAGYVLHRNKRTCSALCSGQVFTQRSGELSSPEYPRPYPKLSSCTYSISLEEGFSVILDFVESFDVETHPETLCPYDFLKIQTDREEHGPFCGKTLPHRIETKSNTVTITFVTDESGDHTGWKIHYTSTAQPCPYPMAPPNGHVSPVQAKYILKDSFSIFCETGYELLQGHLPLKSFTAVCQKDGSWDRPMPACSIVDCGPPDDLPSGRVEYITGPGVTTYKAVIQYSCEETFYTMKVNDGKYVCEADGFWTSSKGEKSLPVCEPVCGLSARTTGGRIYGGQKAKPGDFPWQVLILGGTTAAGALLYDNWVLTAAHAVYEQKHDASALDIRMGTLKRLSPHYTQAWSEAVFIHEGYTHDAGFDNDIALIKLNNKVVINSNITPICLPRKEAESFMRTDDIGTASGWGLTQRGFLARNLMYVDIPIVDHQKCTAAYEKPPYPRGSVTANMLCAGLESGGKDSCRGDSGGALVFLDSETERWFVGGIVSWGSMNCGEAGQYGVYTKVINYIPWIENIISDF

B1: rMASP-3 (recombinant MASP-3 from HEK 293EBNA cells transfected with the pMASP-3; 4.1 construct) (peptide)
chain: GSGALLSASWILTAAHVLRSQRRDTTVIPVSKEHVTVYL
activation of C4 by rMBL-rMASP-2 complexes (bound C4 on mannan-coated wells, Eu-labelled anti-C4 antibody): The activity of rMBL-rMASP-2 complexes was also inhibited by rMASP-3
